Reference: the supplement of paper PMC6757056
± gives the standard deviation of the averaged measurements.

B1: library; a variant is named by its letters at N, in order (parent)
chain: GCUGUCACCGGUGUAUUACCCUAGUGGUCGACCGGUCUGAUGAGUCUNNNNNNAGACGAAACAGC

Experiments:
hypoxanthine [1] = variants of: B1; assay: FACS-Seq fitted mean relative fluorescence mCherry/BFP without ligand (log10 relative fluorescence); ligand: hypoxanthine (xanthine aptamer); higher = higher reporter protein expression; settings: HEK293T, ligand present: no
Protocol: (§1)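 Hammerhead (sTRSV) ribozyme switch libraries with a ligand aptamer grafted on stem I and a randomized N4-6 loop II, cloned into the 3' UTR of mCherry and transiently transfected into HEK293T cells; RNA-Seq 72 h post transfection with ligand added 1 h before transfection; RNA read count / plasmid DNA read count normalized to the non-cleaving sTRSVctl (x100), log10; sequences with >100 DNA reads. FACS-Seq: lentiviral library sorted into 6 bins after 48 h ligand, log-normal fit mean of mCherry/BFP scaled to controls. Printed sequences are partial switch sequences.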

hypoxanthine [2] = variants of: B1; assay: normalized RNA/DNA level with ligand (relative to sTRSVctl = 100) (log10 (% of sTRSVctl)); ligand: hypoxanthine (xanthine aptamer); higher = less ribozyme self-cleavage, higher mRNA level; settings: ligand concentration (+) RNA-Seq: 5 mM, HEK293T, reporter: mCherry (pCS4076), ligand present: yes
Protocol: as §1

hypoxanthine [3] = variants of: B1; assay: normalized RNA/DNA level without ligand (relative to sTRSVctl = 100) (log10 (% of sTRSVctl)); ligand: hypoxanthine (xanthine aptamer); higher = less ribozyme self-cleavage, higher mRNA level; settings: HEK293T, reporter: mCherry (pCS4076), ligand present: no
Protocol: as §1

hypoxanthine [4] = variants of: B1; assay: FACS-Seq fitted mean relative fluorescence mCherry/BFP with ligand (log10 relative fluorescence); ligand: hypoxanthine (xanthine aptamer); ligand concentration (+) FACS-Seq: 5 mM; higher = higher reporter protein expression; settings: HEK293T, ligand present: yes
Protocol: as §1

Row | Variant | FACS-Seq fitted mean (log10) (hypoxanthine [1]) | normalized RNA/DNA level with ligand (log10) (hypoxanthine [2]) | normalized RNA/DNA level without ligand (log10) (hypoxanthine [3]) | FACS-Seq fitted mean (log10) (hypoxanthine [4])
1 | GCUGUCACCGGUGUAUUACCCUAGUGGUCGACCGGUCUGAUGAGUCUCACUAAAGACGAAACAGC [CACUAA] | 0.376 ± 0.014 | 1.8618 ± 0.00057 | 1.74 ± 0.025 | 0.456 ± 0.0093
2 | GCUGUCACCGGUGUAUUACCCUAGUGGUCGACCGGUCUGAUGAGUCUAACUGGAGACGAAACAGC [AACUGG] | 0.285 ± 0.031 | 1.7871 ± 0.0011 | 1.42 ± 0.039 | 0.67312 ± 0.00058
3 | GCUGUCACCGGUGUAUUACCCUAGUGGUCGACCGGUCUGAUGAGUCUAACUGCAGACGAAACAGC [AACUGC] | 0.74 ± 0.033 | 1.91 ± 0.053 | 1.87 ± 0.025 | 0.697 ± 0.048
4 | GCUGUCACCGGUGUAUUACCCUAGUGGUCGACCGGUCUGAUGAGUCUAACUGAAGACGAAACAGC [AACUGA] | -0.0809 ± 0.032 | 1.94 ± 0.035 | 1.716 ± 0.012 | -0.204 ± 0.016
5 | GCUGUCACCGGUGUAUUACCCUAGUGGUCGACCGGUCUGAUGAGUCUGACUCGAGACGAAACAGC [GACUCG] | 0.331 ± 0.066 | 1.86 ± 0.051 | 1.63 ± 0.083 | 0.567 ± 0.081
6 | GCUGUCACCGGUGUAUUACCCUAGUGGUCGACCGGUCUGAUGAGUCUGACUGAAGACGAAACAGC [GACUGA] | 0.742 ± 0.053 | 1.94 ± 0.072 | 1.763 ± 0.011 | 0.639 ± 0.17
7 | GCUGUCACCGGUGUAUUACCCUAGUGGUCGACCGGUCUGAUGAGUCUGACGUUAGACGAAACAGC [GACGUU] | 0.455 ± 0.066 | 1.9 ± 0.044 | 1.853 ± 0.0023 | 0.575 ± 0.066
8 | GCUGUCACCGGUGUAUUACCCUAGUGGUCGACCGGUCUGAUGAGUCUCACGUAAGACGAAACAGC [CACGUA] | 0.4515 ± 0.0024 | 1.9 ± 0.016 | 1.784 ± 0.0067 | 0.594 ± 0.022
9 | GCUGUCACCGGUGUAUUACCCUAGUGGUCGACCGGUCUGAUGAGUCUCACUGGAGACGAAACAGC [CACUGG] | 0.504 ± 0.03 | 1.9 ± 0.019 | 1.43 ± 0.16 | 0.709 ± 0.016
10 | GCUGUCACCGGUGUAUUACCCUAGUGGUCGACCGGUCUGAUGAGUCUGACUAAAGACGAAACAGC [GACUAA] | 0.354 ± 0.073 | 1.89 ± 0.027 | 1.796 ± 0.0046 | 0.515 ± 0.01
11 | GCUGUCACCGGUGUAUUACCCUAGUGGUCGACCGGUCUGAUGAGUCUGACUAUAGACGAAACAGC [GACUAU] | 0.185 ± 0.051 | 1.92 ± 0.077 | 1.829 ± 0.016 | 0.377 ± 0.004
12 | GCUGUCACCGGUGUAUUACCCUAGUGGUCGACCGGUCUGAUGAGUCUUACUAGAGACGAAACAGC [UACUAG] | 0.177 ± 0.053 | 1.9142 ± 0.0014 | 1.65 ± 0.033 | 0.506 ± 0.038
13 | GCUGUCACCGGUGUAUUACCCUAGUGGUCGACCGGUCUGAUGAGUCUUACUAAAGACGAAACAGC [UACUAA] | 0.00308 ± 0.026 | 1.91 ± 0.023 | 1.8 ± 0.025 | 0.206 ± 0.073
14 | GCUGUCACCGGUGUAUUACCCUAGUGGUCGACCGGUCUGAUGAGUCUAACGUCAGACGAAACAGC [AACGUC] | 0.221 ± 0.029 | 2.01 ± 0.052 | 1.949 ± 0.0078 | 0.255 ± 0.0059
15 | GCUGUCACCGGUGUAUUACCCUAGUGGUCGACCGGUCUGAUGAGUCUAACGUGAGACGAAACAGC [AACGUG] | 0.285 ± 0.021 | 1.817 ± 0.013 | 1.3 ± 0.041 | 0.737 ± 0.012
16 | GCUGUCACCGGUGUAUUACCCUAGUGGUCGACCGGUCUGAUGAGUCUAACUAGAGACGAAACAGC [AACUAG] | 0.232 ± 0.032 | 1.819 ± 0.011 | 1.473 ± 0.0054 | 0.521 ± 0.045
17 | GCUGUCACCGGUGUAUUACCCUAGUGGUCGACCGGUCUGAUGAGUCUAACUACAGACGAAACAGC [AACUAC] | 0.621 ± 0.011 | 1.922 ± 0.014 | 1.841 ± 0.0075 | 0.653 ± 0.028
18 | GCUGUCACCGGUGUAUUACCCUAGUGGUCGACCGGUCUGAUGAGUCUAACUAUAGACGAAACAGC [AACUAU] | 0.469 ± 0.04 | 1.9 ± 0.041 | 1.787 ± 0.012 | 0.51 ± 0.053
19 | GCUGUCACCGGUGUAUUACCCUAGUGGUCGACCGGUCUGAUGAGUCUAACUAAAGACGAAACAGC [AACUAA] | 0.536 ± 0.12 | 1.937 ± 0.014 | 1.81 ± 0.035 | 0.663 ± 0.043
20 | GCUGUCACCGGUGUAUUACCCUAGUGGUCGACCGGUCUGAUGAGUCUAACUCGAGACGAAACAGC [AACUCG] | 0.382 ± 0.056 | 1.92 ± 0.033 | 1.582 ± 0.0054 | 0.644 ± 0.022
21 | GCUGUCACCGGUGUAUUACCCUAGUGGUCGACCGGUCUGAUGAGUCUUACUCAAGACGAAACAGC [UACUCA] | 0.0121 ± 0.031 | 1.95 ± 0.029 | 1.907 ± 0.0097 | 0.0228 ± 0.0046
